Experimental data taken from patent US20040037843A1.
Read-outs that look alike come from different tables or passages of the source. Values belong to the binder of their own block, whether it stands above or below them. Ends that are not written are not given here.

Columns and labels:
[1] = target: HLA-A*2401 (purified HLA class I molecule) (human); assay: competition with 125I-labelled standard peptide for purified HLA, gel filtration
[2] = target: HLA-A*2401 (human); assay: competition with 125I-labelled probe peptide for purified HLA, gel filtration
[3] = target: HLA-A*0206 (human); assay: inhibition of 125I probe peptide binding to purified HLA; conditions: remark: other sources report otherwise
[4] = target: HLA-A*0201 (human); conditions: remark: other sources report otherwise
[5] = target: HLA-A*0201 (human); assay: inhibition of 125I probe peptide binding to purified HLA; conditions: remark: other sources report otherwise
[6] = target: HLA-A*0202 (human); assay: as above; conditions: remark: other sources report otherwise
[7] = target: HLA-A*0201 (human); conditions: remark: other sources report otherwise; remark: listed apart in the source
[8] = target: HLA-A*0202 (human); assay: competition with 125I-labelled standard peptide for purified HLA, gel filtration; conditions: remark: other sources report otherwise
[9] = target: HLA-A*0203 (human); assay: as above; conditions: remark: other sources report otherwise
[10] = target: HLA-A*0206 (human); assay: as above; conditions: remark: other sources report otherwise
[11] = target: HLA-A*0203 (human); conditions: remark: other sources report otherwise
[12] = target: HLA-A*0203 (human); assay: inhibition of 125I probe peptide binding to purified HLA; conditions: remark: other sources report otherwise
[13] = scale: ratio to standard peptide

- relative binding ratio (IC50 of standard peptide / IC50 of test peptide) [1]: 0.0001
Binder: RFQELESETL [PAP position 163, 10 amino acids]

- relative binding ratio (IC50 of standard peptide / IC50 of test peptide) [2]: 0.055
Binder: HYRKWIKDTI [Kallikrein position 248, 10 amino acids]

- IC50 [3]: 822 nM
Binder: LLFFWLDRSVL [Peptide 63.0139 … (PAP.21)]

- IC50 [4]: < 200 nM
Binder: LLFFWLDRSV [PAP.21]

- relative binding ratio (IC50 of standard peptide / IC50 of test peptide) [2]: 0.0016
Binder: GFLFLLFFW [PAP position 17, 9 amino acids]

- IC50 [3]: 95 nM
Binder: LLLARAASV [Peptide 60.0201 … (PAP.6.V9)]

- relative binding ratio [5]: 0.0003
Binder: DLPTQEPAL [PSA position 136, 9 amino acids]

- IC50 [6]: 0.6 nM
Binder: LLFFWLDRSV [Peptide 1097.09 … (PAP.21)]

- IC50 [4]: < 200 nM
Binder: ILLWQPIPV [PAP.135]

- IC50 [7]: 24 nM
Binder: ALSVGCTGV [peptide 1418.15 (HuK2.9.V9)]

- relative binding ratio (IC50 of standard peptide / IC50 of test peptide) [2]: 0.0067
Binder: EYIRKRYRKF [PAP position 83, 10 amino acids]

- relative binding ratio (IC50 of standard peptide / IC50 of test peptide) [2]: 0.0007
Binder: GFLFLLFFWL [PAP position 17, 10 amino acids]

- IC50 [4]: < 200 nM
Binder: SLHLLSNDMCA [HuK2.175]

- IC50 [4]: < 200 nM
Binder: VLAKELKFV [PAP.30]

- relative binding ratio [8]: 0.022
- relative binding ratio [9]: 0.011
- relative binding ratio [10]: 0.0006
Binder: GAAPLILSRIV [PSA position 12, 11 amino acids]

- relative binding ratio (IC50 of standard peptide / IC50 of test peptide) [1]: 0.0037
Binder: RFAELVGPVI [PAP position 355, 10 amino acids]

- IC50 [4]: < 200 nM
Binder: ALGTTCYA [PSA.143]

- relative binding ratio (IC50 of standard peptide / IC50 of test peptide) [1]: 0.0013
Binder: SWPQGFGQL [PAP position 62, 9 amino acids]

- IC50 [11]: 250 nM
Binder: HLLSNDMCARA (not fully specified) [peptide 1419.15 (HuK2.177)]

- relative binding ratio [5]: 0.0013
- relative binding ratio [6]: 0.037
- relative binding ratio [12]: 0.025
- relative binding ratio [3]: 0.0002
Binder: CAGRWTGGKST [PSA position 194, 11 amino acids]

- IC50 [4]: < 200 nM
Binder: LLQERGVAYI [PSM.441]

- relative binding ratio (IC50 of standard peptide / IC50 of test peptide) [1]: 0.26
Binder: SYKHEQVYI [PAP position 96, 9 amino acids]

- relative binding ratio (IC50 of standard peptide / IC50 of test peptide) [2]: 0.0001
Binder: GWGSIEPEEF [Kallikrein position 156, 10 amino acids]

- relative binding ratio (IC50 of standard peptide / IC50 of test peptide) [1]: 0.11
Binder: PYKDFIATL [PAP position 183, 9 amino acids]

- IC50 [4]: < 200 nM
Binder: KLQCVDLHV [PSA.166]

- relative binding ratio (IC50 of standard peptide / IC50 of test peptide) [2]: 0.0017
Binder: FFWLDRSVL [PAP position 23, 9 amino acids]

- IC50 [4]: < 200 nM
Binder: GMPEGDLVYV [PSM.168]

- relative binding ratio (IC50 of standard peptide / IC50 of test peptide) [2]: 0.0002
Binder: DFIATLGKL [PAP position 186, 9 amino acids]

- IC50 [6]: 10 nM
- IC50 [3]: 378 nM
Binder: LLARAASLSV [Peptide 63.0031 … (PAP.7.V10)]

- IC50 [4]: < 200 nM
Binder: ALFDIESKV [PSM.711]

- IC50 [4]: < 200 nM
Binder: FLRPRSLQCV [HuK2.165]

- IC50 [5]: 500 nM
- IC50 [6]: 5.2 nM
- IC50 [3]: 9250 nM
Binder: LLARAASLSL [Peptide 20.0203 … (PAP.7)]

- IC50 [11]: 4.2 nM
Binder: FLRPRSLQCV [peptide 1419.07 (HuK2.165)]

- relative binding ratio (IC50 of standard peptide / IC50 of test peptide) [1]: 0.0005
Binder: VFRHGDRSPI [PAP position 41, 10 amino acids]

- IC50 [4]: < 200 nM
Binder: IMYSAHDTTV [PAP.284]

- IC50 [7]: 50 nM
Binder: DLMLLRLSEPV [peptide 63.0109 (HuK2.120.V11)]

- IC50 [4]: < 200 nM
Binder: ALDVYNGLL [PAP.299]

- IC50 [5]: 227 nM
- IC50 [3]: 95 nM
Binder: AASLSLGFLFL [Peptide 63.0137 … (PAP.11)]

- relative binding ratio [5]: 0.0041
- relative binding ratio [6]: 0.018
- relative binding ratio [12]: 0.01
- relative binding ratio [3]: 0.0001
Binder: DLPTQEPALGT [PSA position 136, 11 amino acids]

- IC50 [4]: < 200 nM
Binder: FLTPKKLQCV [PSA.161]

- relative binding ratio (IC50 of standard peptide / IC50 of test peptide) [2]: 0.015
Binder: AMTNLAALF [PAP position 116, 9 amino acids]

- IC50 [5]: 208 nM
Binder: LLLARAASL [Peptide 20.0044 … (PAP.6)]

- IC50 [5]: 40 nM
Binder: SLSLGFLFLL [Peptide 1419.51 … (PAP.13)]

- IC50 [4]: < 200 nM
Binder: MLLRLSEPA [PSA.118 (9-mer …)]

- relative binding ratio (IC50 of standard peptide / IC50 of test peptide) [2]: 0.0024
Binder: IWSKVYDPL [PAP position 205, 9 amino acids]

- IC50 [4]: < 200 nM
Binder: FLNESYKHEQV [PAP.92]

- relative binding ratio [5]: 0.0008
- relative binding ratio [12]: 0.0071
- relative binding ratio [3]: 0.0016
Binder: CALPERPSLYT [PSA position 230, 11 amino acids]

- IC50 [6]: 307 nM
- IC50 [12]: 625 nM
Binder: FLFLLFFWV [Peptide 60.0203 … (PAP.18.V9)]

- IC50 [3]: 381 nM
Binder: FLNESYKHEQV [Peptide 1419.55 … (PAP.92)]

- IC50 [4]: < 200 nM
Binder: QLMFLERAFI [PSM.667]

- IC50 [4]: < 200 nM
Binder: VLAGGFFLL [PSM.27]

- relative binding ratio (IC50 of standard peptide / IC50 of test peptide) [1]: 0.024
Binder: PYASCHLTEL [PAP position 309, 10 amino acids]

- IC50 [4]: < 200 nM
Binder: RMMNDQLMFL [PSM.662]

- relative binding ratio (IC50 of standard peptide / IC50 of test peptide) [2]: 0.17
Binder: CYASGWGSI [Kallikrein position 152, 9 amino acids]

- IC50 [4]: < 200 nM
Binder: GLPSIPVHPI [PSM.288]

- relative binding ratio [5]: 0.0074
- relative binding ratio [12]: 0.02
- relative binding ratio [3]: 0.003
Binder: CARAYSEKVT [Kallikrein position 184, 10 amino acids]

- IC50 [4]: < 200 nM
Binder: LMLLRLSEPA [PSA.117]

- IC50 [4]: < 200 nM
Binder: LVLAGGFFL [PSM.26]

- relative binding ratio [8, 13]: 0.0087
- relative binding ratio [9, 13]: 0.0074
Binder: LTPKKLQCVDL [PSA peptide, position 162, 11 amino acids]

- IC50 [5]: 6.9 nM
- IC50 [6]: 8.1 nM
Binder: VLAKELKFVTL [Peptide 63.0142 … (PAP.30)]
